PMC12700824 (2025)

Target: FAM118B24–334-F122R (human, UniProt Q9BPY3 24-334, F122R)
Experiment: ITC

Kd: 233 nM
B1: FAM118B24–334-L32R (domain or fragment)
chain: PTKKPRKLRPSLKTKKPRELVLVIGTGISAAVAPQVPALKSWKGLIQALLDAAIDFDLLEDEESKKFQKCLHEDKNLVHVAHDLIQKLSPRTSNVRSTFFKDCLYEVFDDLESKMEDSGKQLLQSVLHLMENGALVLTTNFDNLLELYAADQGKQLESLDLTDEKKVLEWAQEKRKLSVLHIHGVYTNPSGIVLHPAGYQNVLRNTEVMREIQKLYENKSFLFLGCGWTVDDTTFQALFLEAVKHKSDLEHFMLVRRGDVDEFKKLRENMLDKGIKVISYGDDYADLPEYFKRLTCEISTRGTSAGMVREG
